Test results from patent US20230002486A1 (SPARX THERAPEUTICS, published 2023).

Assays:
[1] = target: claudin 18.2 (CLDN 18.2), recombinant protein (human); assay: direct ELISA, coated recombinant CLDN 18.2 (FIG. 7A)
[2] = target: claudin 18.2 (CLDN 18.2), recombinant protein (human); assay: direct ELISA, coated recombinant CLDN 18.2
Excerpt: ELISA assay was employed to determine the binding properties of the bispecific antibodies to their antigens. […] The wells were then reacted with goat anti human IgG antibody conjugated with horseradish peroxidase (HRP).

[3] = target: T1, CLDN 18.2 fused with GFP at its C-terminal, on MCF7 cells (MCF7-CLDN 18.2) (human); assay: cell-based or functional assay
T1 sequence (chain, as listed by the source): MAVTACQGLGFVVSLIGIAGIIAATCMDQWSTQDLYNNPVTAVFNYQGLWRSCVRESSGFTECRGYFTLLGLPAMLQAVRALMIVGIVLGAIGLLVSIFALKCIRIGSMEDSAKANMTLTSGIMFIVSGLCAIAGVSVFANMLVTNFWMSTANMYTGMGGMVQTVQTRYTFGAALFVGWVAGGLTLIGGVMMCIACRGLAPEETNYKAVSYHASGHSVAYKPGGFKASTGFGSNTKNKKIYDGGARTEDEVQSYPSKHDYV

[4] = target: T2, CLDN 18.2 expressed on stably transfected cells (HEK293T-CLDN 18.2, MiaPaCa-CLDN 18.2) (human); assay: cell-based or functional assay
T2 sequence (chain, as listed by the source limits assumed): as the sequence (chain, as listed by the source) above

[5] = target: T1, CLDN 18.2 fused with GFP at its …; assay: cell-based or functional assay; remark: listed apart in the source
[6] = target: T2, CLDN 18.2 expressed on stably …; assay: cell-based or functional assay; remark: listed apart in the source
[7] = target: claudin 18.2 (CLDN 18.2), recombinant protein (human); assay: direct ELISA, coated CLDN 18.2 (FIG. 28A)

Sequence of claudin 18.2 (CLDN 18.2), recombinant protein (human) (chain, as listed by the source limits assumed): as the sequence (chain, as listed by the source) above

B1: h5C9ob, monospecific parent anti-CLDN 18.2 monoclonal antibody (IgG) (antibody, V domains shown)
VH: EVQLVESGGGLVQPGGSLRLSCAVSGYTFSMNWVRQAPGKGLEWVAWINMYTGEPTYADDFKGRFTISRDDSKNTLYLQMNSLRAEDTAVYYCARLYNGNSLDYWGQGTLVTVSS
VL: DIQMTQSPSSLSASVGDRVTITCKSSQSLLNSGNQKSYLTWYQQKPGKAPKLLIYWASTLESGVPSRFSGSGSGTDYTLTISSLQPEDFATYYCQNAYFFPFTFGQGTKVEIKR
notes: Whole human IgG1 produced as described under 'Production of Recombinant Antibodies'
[1]
  Kd: 0.133 nM
[2]
  Kd: 0.13 nM
[3]
  ADCC Reporter in MCF7-CLDN 18.2, EC50: 0.006 nM
[4]
  ADCC Reporter in HEK293-CLDN18.2, EC50: 0.056 nM
  CDC in HEK293-CLDN 18.2, EC50: 0.43 nM
  CDC in MiaPaCa-CLDN 18.2, EC50: 0.52 nM
[5]
  ADCC reporter assay, EC50 (FIG. 24A): 0.00443 nM
[6]
  ADCC reporter assay, EC50 (FIG. 18): 0.0561 nM
  CDC against Mia Paca-CLDN 18.2 cells, EC50 (FIG. 17B): 0.52 nM
[7]
  Kd: 0.0819 nM
